System: MS2 coat protein
Experiment: apparent KD of MS2 coat protein; designed switch direction (-1 OFF switch, 1 ON switch): -1; higher = weaker reporter binding
How it was run: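 Transcription of designed RNA switches on Illumina chips was done by stalled E. coli RNA polymerase. SNAP-549-labelled MS2 coat protein was then titrated in doubling steps from 0.7 or 1.5 nM to 3 µM, with steps of 0.8–1.5 h at the lowest and 10–20 min at the highest concentration. The per-design median over clusters of curve-fitted normalised fluorescence is reported as apparent KD.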

[1] = input ligand: microRNA oligo, concentration not stated
[2] = Eterna round: R95, input ligand: microRNA oligo, concentration not stated
[3] = Eterna round: R95, input ligand: FMN 200 uM
[4] = Eterna round: R95, input ligand: none

Sequence	apparent KD of MS2 coat protein (input ligand: FMN 200 uM) [nM]	apparent KD of MS2 coat protein [1] [nM]	apparent KD of MS2 coat protein (input ligand: none) [nM]	apparent KD of MS2 coat protein [2] [nM]	apparent KD of MS2 coat protein [3] [nM]	apparent KD of MS2 coat protein [4] [nM]
CUGCUCCGUGUAGGAUAUGCAUACUCCCAUUAUGCAGAAGGACAUGAGGAUCACCCAUGUAUGUUAUUAUCAUGUGUUGCGUAC [Design 13] (Eterna round: R96, puzzle: Exclusion NG 1)	250	29.5	38.5			
UUUUUGUGAGGAUAUUAGUAGUAAAAAAAUAAAAUUACUACUGAGAAGGCACAUGAGGAUCACCCAUGUUCCUC [salish99_ex4_r3_040] (puzzle: Exclusion 4)				34.9		
GUCAUCACACAUGGGAUCAACAUGAGGAUCACCCAUGUUGCCAAGUUGUUUGCACGUCUUAUCAUACGUUUUUCGAG [Mod-Jxh] (Eterna round: R97, puzzle: Sensor, turn-off variant 1)	22.9		23.2			
ACUAGAUGAGGAUAUGCACAUUUUAGUGUUCCUCUAGAUUAACAUGAGGAUCACCCAUGUAGAAGGCGUCAUUA [Exclusion 2 - 14] (puzzle: Exclusion 2)				49.9		
GAUACCUAUGUAAGGAUAUAUAAAGAGAGCCGCCUGUAGAAGGUACAUGAGGAUCACCCAUGUUGGGAGACCGA [Eternabot (L1) Solution 17] (Eterna round: R97, puzzle: Brourd's mod of Exclusion 4)	1160		1390			
GAUCCACAUGAGGAUCACCCAUGUGAGGAUAUGAUACUAUGUACUUCGGUACAUAGUAUCAGAAGGCACAUUGA [Ex1-3: 45] (puzzle: Exclusion 1)				136		
CAUACUAAAGUCAGGAUAUGCAGUCGAAUACGGGUGUAGAAGGGACAUGAGGAUCACCCAUGUAGAUAGUAAAG [EX-4 Malc #20] (puzzle: Brourd's mod of Exclusion 4)				48.9	37.9	42.2
ACUCACGCAGGAUAUACAUGAGGAUCACCCAUGUUCGAAGGGCGUGGGCACAAAGUCUGUAGAAGGGCGAAAAU [Zave] (Eterna round: R97, puzzle: Exclusion 3)	19.2		16.3			
UCUUAUUGCAAGGAUAUGCUUUUUAUUUCUUUUGCAGAAGGUGCAACAUGAGGAUCACCCAUGUUUCCGGGCAU [JR_E6_Sub035] (Eterna round: R96, puzzle: Exclusion 6)	34.4	16.4	21.5			
AAGGGUACUUUCAGAACGACAUGAGGAUCACCCAUGUAGACUGAGGAUAUCUACUUCUAAGGACGGGAGAAGGCAGUGUAAUGU [Ex NG3 #72] (Eterna round: R96, puzzle: Exclusion NG 3)	11.4	10.7	13.5			
GGCCGAGAACAGCUCCACGCUACCCUCGGCCGCUCAUUUACAUGAGGAUCACCCAUGUUUUUUGCUUGUCUUGUUUC [Xeisrarabi] (puzzle: Sensor v3, turn-off variant 2)				94.1	22.1	24.1
GGUCAAGAGCAGAUCCGCGCUGCUAUUGACCGCUCAUUUACAUGAGGAUCACCCAUGUUUUUUGCUCGUCUUAUUAC [Biinedmaa] (puzzle: Sensor v3, turn-off variant 2)				77.7	19.4	18.7
CAGUACUGAGGAUAUACAUGAGGAUCACCCAUGUGUCCUAUAUUAGGAAACUAGGUAUGUAGAAGGCAGUACUG [Omei Ex3 Mod of Eli 4.27 v5] (Eterna round: R97, puzzle: Exclusion 3)	485		340			
GCGCCAUCGUGAGAUGGCGUUCCGACAUGAGGAUCACCCAUGUAGGAUAUCGAUUGCUUUGCAGUCGAGAAGGGCGUGAUAAGU [JL ENG3 3.73] (Eterna round: R96, puzzle: Exclusion NG 3)	18.3	17.8	22.9			
GUCCAACAUGAGGAUCACCCAUGUCAGGAUAUGCGAAUUUCAUCAAAAGAUGAAAUUUGCAGAAGGGACUGGAC [Omei Ex1 A29] (Eterna round: R97, puzzle: Exclusion 1)	44		23.3			
UUUUUCAUCUAUGGGAGUGACAUGAGGAUCACCCAUGUGUGUCUUGUUUUUUGUUCGUCUAAGACUUUCUGAUCAGU [JR_SV3TOV1_Sub032] (puzzle: Sensor v3, turn-off variant 1)				313	128	160
ACAAGCUUUUUGUUCGUCUUAUAAUAUUAAAUAAAGAUAACAUGAGGAUCACCCAUGUAACAAAGACGGACUCAUGU [Sesor Array 17 - Jieux - Sensor v3, turn-off variant 2] (puzzle: Sensor v3, turn-off variant 2)				200	16.2	13.8

Sequence	apparent KD of MS2 coat protein (input ligand: FMN 200 uM) [nM]	apparent KD of MS2 coat protein [1] [nM]	apparent KD of MS2 coat protein (input ligand: none) [nM]	apparent KD of MS2 coat protein [2] [nM]	apparent KD of MS2 coat protein [3] [nM]	apparent KD of MS2 coat protein [4] [nM]
UCGGCGCUAGGAUAUGCGUCGAAAGACAUGAGGAUCACCCAUGUGGUGCUCCUUAUUAAAGCAGAAGGAGCCCGUA [EX5 A.17] (Eterna round: R97, puzzle: Exclusion 5)	300		152			
AAGGGUACUUUCGGAACGACAUGAGGAUCACCCAUGUAGACUGAGGAUAUCUGCUACUAAGGACGGGAGAAGGCAGUGUAAUGU [Ex NG3 #75] (Eterna round: R96, puzzle: Exclusion NG 3)	18.5	12.8	18.7			
AAAUUGUGAGGAUAUUCGUAGUACACGGAGACGUGUAUUACGGAGAAGGCACAUGAGGAUCACCCAUGUUCCUU [jl-ex4-13 Eli mod] (Eterna round: R97, puzzle: Exclusion 4)	103		19.1			
AAUAAGCGAGGAUAUACAUGAGGAUCACCCAUGUGGACCGGGUGUUCAGCAAAUAAAAGUAGAAGGCGCAAAAG [Tibiater] (puzzle: Exclusion 3)				46.8	29.1	25.8
ACUCACUCGCGAGGAUAUGGACAAAUAUAAACGCUAGAAGGCGCGACAUGAGGAUCACCCAUGUACUCACUCACUCACUCACAU [my 1st design ever] (Eterna round: R96, puzzle: Exclusion NG 1)	62.6	27.5	41.9			
CGUACUGAAGUCAGGAUAUUGUCUCGGAUACGAAACAAGAAGGGACAUGAGGAUCACCCAUGUGGACAGUACGA [Malc #30 mod 6] (puzzle: Brourd's mod of Exclusion 4)				44	38.3	36.7
AUUUAGAGAGGAUAUAUAAAGUGAAACAUGAGGAUCACCCAUGUAAUUUUAUGGAUGUAAAUAGAAGGCUCAUUUA [Mat - Exclusion 5 - JL mod - D1] (puzzle: Exclusion 5)				28.9	23.7	30.1
UAGAUGGGAGGAUAUACGUAGAUGCAGGUUCGUGUGGUGCUACAUGAGGAUCACCCAUGUAGAAGGCCCGUCUU [Resubmit R3 JL-ex2-2.29] (Eterna round: R97, puzzle: Exclusion 2)	77.4		18.4			
GGUUGGCGAGGAUAUACAUGAGGAUCACCCAUGUGAGAGAAAAAAGUGAGCAAGAAAAGUAGAAGGCGCUGACG [salish99_ex3_r3_030] (puzzle: Exclusion 3)				75.7	627	27.5
UUGUUACAUGAGGAUCACCCAUGUGAGGAUAUGGUUCAGUAAUGUAAUGUAAAGUACUCCAGAAGGCACAUGUU [1st #27] (Eterna round: R97, puzzle: Exclusion 1)	1510		809			
UUUAGUUCAGGAUAUGUAGAUUUUAACAUGAGGAUCACCCAUGUAGAUCCUGAUCCUGCUACAGAAGGGAAGAUUU [Mat - Exclusion 5 - Eli Mod - D7] (Eterna round: R97, puzzle: Exclusion 5)	22.3		23.9			
GACGUGUUAGGAUAUAGCUCUCGGGACAGCAAUGAUCCGAGUUAGAAGGAACAUGAGGAUCACCCAUGUUAUUU [Eternabot (L2) Solution 60] (Eterna round: R97, puzzle: Exclusion 4)	18.4		21.1			
GAUCAACAUGAGGAUCACCCAUGUGAGGAUAUGUAUCAUAGAUCUUCGGAUCUAUGAUACAGAAGGCAUGUAGG [Ex1-3: 100] (puzzle: Exclusion 1)				74.2		
ACGAAACAUGAGGAUCACCCAUGUGAGGAUAUUAUGUUAUAAUACAUACUAUACAUAUUAAGAAGGCACAUUGG [Design #12] (Eterna round: R97, puzzle: Exclusion 1)	138		74.6			
AAGACAAUUCUCUAGUGCAACAUGAGGAUCACCCAUGUCAUAGAAGCUUUUUGCUCGUGUUAAGUGACUCAAGAGAG [Eternabot (Original) Solution 41] (Eterna round: R97, puzzle: Sensor, turn-off variant 1)	69.6		64.2			
GGUGAAGCAGGAUAUGUGCUGGCAUACAUGAGGAUCACCCAUGUCAUGUAGGAACCACGUAUAGAAGGGCUUCACC [Exclusion 5 (FMN-MS2 slide v.10)] (Eterna round: R97, puzzle: Exclusion 5)	50.7		28.1			
GGAUUACAUGAGGAUCACCCAUGUCAGGAUAUACGAUCAUAUGCCGAAAGGCAUAUGAGUAGAAGGGACAAUAU [AK-MS2ROC-r4-exclusion1-2.0] (Eterna round: R97, puzzle: Exclusion 1)	46.2		36.1			
